Target: the molecule itself
Assay: crystal structure; crystals grown from the entire CF1FO-ATP synthase (18 mg/ml), vapour diffusion, 33% (v/v) PEG 550 MME, 0.05 M sodium acetate pH 4.3; only the c-ring in the crystal; molecular replacement with PDB 2W5J; refined to 6.0 Å

B1: subunit c of the CF1FO-ATP synthase from spinach chloroplasts (natural protein, spinach (Spinacea oleracea L.), UniProt P69447 1-81, looked up)
chain: MNPLIAAASVIAAGLAVGLASIGPGVGQGTAAGQAVEGIARQPEAEGKIRGTLLLSLAFMEALTIYGLVVALALLFANPFV
notes: ATP synthase subunit c (subunit III), chloroplastic, Spinacia oleracea; native protein from the tissue; the last four C-terminal amino acids are not visible in the electron density map; Native, untagged protein; Homo-oligomeric ring of 14 copies; also called subunit III; c-ring; source: the c-ring alone was left in the crystal; copies: 14
stoichiometry N: 14
